From patent publication US9193963B2, “Mutant endoglucanase” (Toray Industries, Inc., priority 2011, dated 2015)
Residue numbers refer to the chain shown, from its start.

B1: EGIa1 Wild-type: Ignisphaera aggregans-derived endoglucanase1, SEQ ID NO: 7, parent endoglucanase (protein)
chain: MNFFVKNGEIYKLDGATGKPKIIYLFGVNWFGFETRDYVVHGLWARNWVDMLQQIKSLGFNAIRLPFCTYSVQEGTMPNSNAINYNINPDLQGLTSIEIMEKIVAKANELGIYILLDYHRLGCDQIEPLWYSDQVSEQQFIDTWVSVAKRFAKYPNVIGADIRNEPWGATWGTDDPATDWRLAVEKVAPKILEVAPHWLIFVEGTYKTRPDIDERSWYPYYSYYVFWGENLRAVRYYPVRLPYEKIVYSPHTYGPDVFRQPYFDDPIFPENMRSIWMERFGYVKTELGYALVVGEFGGRYGHGGDPRDIIWQIKFVDWLIENRICNFFYWSWNANSGDTGGILKDDWTNIWEDKYQNLKRLMDYCSSIN
modifications: Ignisphaera aggregans EGIa1
B2: EGIa1 Mutant: mutant EGIa1, SEQ ID NO: 8; residue corresponding to 273rd tryptophan substituted with alanine (protein)
chain: B1 chain with W227A
modifications: Ignisphaera aggregans EGIa1 W227A
notes: residue corresponding to 273rd tryptophan substituted with alanine
B3: EGPh Wild-type: Pyrococcus horikoshii-derived endoglucanase, SEQ ID NO: 1, parent endoglucanase (protein)
chain: MEGNTILKIVLICTILAGLFGQVVPVYAENTTYQTPTGIYYEVRGDTIYMINVTSGEETPIHLFGVNWFGFETPNHVVHGLWKRNWEDMLLQIKSLGFNAIRLPFCTESVKPGTQPIGIDYSKNPDLRGLDSLQIMEKIIKKAGDLGIFVLLDYHRIGCTHIEPLWYTEDFSEEDFINTWIEVAKRFGKYWNVIGADLKNEPHSVTSPPAAYTDGTGATWGMGNPATDWNLAAERIGKAILKVAPHWLIFVEGTQFTNPKTDSSYKWGYNAWWGGNLMAVKDYPVNLPRNKLVYSPHVYGPDVYNQPYFGPAKGFPDNLPDIWYHHFGYVKLELGYSVVIGEFGGKYGHGGDPRDVIWQNKLVDWMIENKFCDFFYWSWNPDSGDTGGILQDDWTTIWEDKYNNLKRLMDSCSKSSSSTQSVIRSTTPTKSNTSKKICGPAILIILAVFSLLLRRAPR
modifications: Pyrococcus horikoshii EGPh
B4: EGPh Mutant: mutant EGPh, SEQ ID NO: 2; 273rd tryptophan substituted with alanine (protein)
chain: B3 chain with W273A
modifications: Pyrococcus horikoshii EGPh W273A
notes: 273rd tryptophan substituted with alanine

Tests used:
[1] = Activity to degrade phosphoric acid swollen cellulose; type: biochemical
Procedure, shortened: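 Enzyme added to phosphoric acid swollen cellulose in 50 mM acetate buffer, pH 5.2; 1 h reaction at 30–85 °C, stopped by pH change if needed. Glucose released measured by glucose kit; activity expressed relative to parent endoglucanase set at 100%.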

[2] = Inhibition experiment with vanillin: degradation of phosphoric acid swollen cellulose; type: biochemical; conditions: enzyme 0.5 μM, 1 hour, 50° C., parent at 0 mM = 100%
Experimental: (§1) This substance was diluted using buffer and water to obtain a 2 wt % mixture so that the final concentration of sodium acetate was 50 mM (pH 5.2). This was designated as phosphoric acid swollen cellulose and used for the following examples.
The activity of the wild-type and the mutant endoglucanases to degrade phosphoric acid swollen cellulose in the presence of vanillin was measured. 1% phosphoric acid swollen cellulose/50 mM acetate buffer (pH 5.2) was used as a substrate. Vanillin (Sigma Aldrich) was added at final concentrations of 0, 5, 10, and 15 mM. The enzymes prepared in Reference Example 1 and Example 2 were added at a final concentration of 0.5 μM, followed by 1 hour of enzymatic reaction at 50° C.

[3] = Inhibition experiment with ferulic acid: degradation of phosphoric acid swollen cellulose; type: biochemical; conditions: enzyme 0.5 μM, 1 hour, 50° C., parent at 0 mM = 100%
Experimental: as §1
The activity of the wild-type and the mutant endoglucanases to degrade phosphoric acid swollen cellulose was measured in the presence of ferulic acid. 1% phosphoric acid swollen cellulose/50 mM acetate buffer (pH 5.2) was used as a substrate. Ferulic acid (Sigma Aldrich) was added at final concentrations of 0, 5, 10, and 15 mM. The enzymes prepared in Reference Example 1 and Example 2 were each added at a final concentration of 0.5 μM, followed by 1 hour of enzymatic reaction at 50° C.

[4] = Saccharification of lignocellulose 1 with Celluclast and endoglucanase; type: biochemical, Rice straw; conditions: 5 wt % Lignocellulose 1, pH 5.2, 50° C., 24 hours; 1.0 mg/mL cellulase + 0.1 mg/mL endoglucanase
Procedure, shortened: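 Rice straw pretreated with liquid ammonia (15 min room temperature, then 1 h at 150° C), suspended at 5 wt % in 50 mM acetate pH5.2. Hydrolysed at 50° C for 24 h with 1.0 mg/mL Trichoderma reesei cellulase plus 0.1 mg/mL mutant or wild-type endoglucanase; glucose measured.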

[5] = Saccharification of lignocellulose 2 with Celluclast and endoglucanase; type: biochemical, Rice straw; conditions: 5 wt % Lignocellulose 2, pH 5.2, 50° C., 24 hours; 1.0 mg/mL cellulase + 0.1 mg/mL endoglucanase
Procedure, shortened: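 Dilute-sulfuric-acid-pretreated rice straw (10 wt% solids, pH ~5) suspended at 5 wt% in 50 mM acetate buffer pH 5.2 was digested 24 h at 50 °C with 1.0 mg/mL Trichoderma reesei Celluclast plus 0.1 mg/mL mutant or wild-type endoglucanase; glucose released was measured.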

[6] = Saccharification of lignocellulose 3 with Celluclast and endoglucanase; type: biochemical, Rice straw; conditions: 5 wt % Lignocellulose 3, pH 5.2, 50° C., 24 hours; 1.0 mg/mL cellulase + 0.1 mg/mL endoglucanase
Procedure, shortened: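 Hydrothermally pretreated rice straw (180° C., 20 min) at 5 wt % in 50 mM acetate buffer pH 5.2 digested at 50° C. for 24 h with Celluclast 1.0 mg/mL plus mutant or wild-type endoglucanase 0.1 mg/mL. Released glucose measured over time.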

[7] = Saccharification of lignocellulose 1 with Trichoderma reesei culture solution and endoglucanase; type: biochemical, Rice straw; conditions: Lignocellulose 1, 24 hours; cellulase 1.0 mg/mL + endoglucanase 0.1 mg/mL + β-glucosidase (Novozyme 188) 0.01 mg/mL
Procedure, shortened: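 Substrate was liquid-ammonia-treated rice straw (1 h, 150 °C), suspended at 5 wt % in 50 mM acetate buffer pH 5.2 and hydrolysed for 24 h at 50 °C. Enzymes: T. reesei culture solution 1.0 mg/mL, mutant or wild-type endoglucanase 0.1 mg/mL, β-glucosidase 0.01 mg/mL. Glucose released was measured.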

[8] = Saccharification of lignocellulose 2 with Trichoderma reesei culture solution and endoglucanase; type: biochemical, Rice straw; conditions: Lignocellulose 2, 24 hours; cellulase 1.0 mg/mL + endoglucanase 0.1 mg/mL + β-glucosidase (Novozyme 188) 0.01 mg/mL
Procedure, shortened: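 Dilute-sulfuric-acid-autoclaved rice straw (pH ~5) suspended at 5 wt % in 50 mM acetate pH 5.2, hydrolysed 24 h at 50 °C. Enzymes: T. reesei culture solution 1.0 mg/mL, mutant or wild-type endoglucanase 0.1 mg/mL, β-glucosidase 0.01 mg/mL. Glucose released was measured.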

[9] = Saccharification of lignocellulose 3 with Trichoderma reesei culture solution and endoglucanase; type: biochemical, Rice straw; conditions: Lignocellulose 3, 24 hours; cellulase 1.0 mg/mL + endoglucanase 0.1 mg/mL + β-glucosidase (Novozyme 188) 0.01 mg/mL
Procedure, shortened: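 Hydrothermally treated rice straw (180 °C, 20 min, 10 MPa; solid fraction) suspended at 5 wt % in 50 mM acetate buffer pH 5.2, hydrolysed 24 h at 50 °C. Enzymes: T. reesei culture-solution cellulase 1.0 mg/mL, mutant or wild-type endoglucanase 0.1 mg/mL, β-glucosidase 0.01 mg/mL; glucose generated measured.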

[10] = 1% phosphoric acid swollen cellulose, pH 5.2, enzyme 0.5 μM, 1 hour, 50° C., glucose generated by each parent endoglucanase = 100%

| Molecule | Relative activity [1, 10] | Relative activity to degrade phosphoric acid swollen cellulose ([2]; vanillin 0 mM) | Relative activity to degrade phosphoric acid swollen cellulose ([2]; vanillin 5 mM) | Relative activity to degrade phosphoric acid swollen cellulose ([2]; vanillin 10 mM) | Relative activity to degrade phosphoric acid swollen cellulose ([2]; vanillin 15 mM) | Relative activity to degrade phosphoric acid swollen cellulose ([3]; ferulic acid 0 mM) | Relative activity to degrade phosphoric acid swollen cellulose ([3]; ferulic acid 5 mM) | Relative activity to degrade phosphoric acid swollen cellulose ([3]; ferulic acid 10 mM) | Relative activity to degrade phosphoric acid swollen cellulose ([3]; ferulic acid 15 mM) | Concentration of glucose generated, Celluclast + Wild-type [4] | Concentration of glucose generated, Celluclast + Wild-type [5] | Concentration of glucose generated, Celluclast + Wild-type [6] | Concentration of glucose generated, Culture solution + Wild-type [7] | Concentration of glucose generated, Culture solution + Wild-type [8] | Concentration of glucose generated, Culture solution + Wild-type [9] | Concentration of glucose generated, Celluclast + Mutant [4] | Concentration of glucose generated, Celluclast + Mutant [5] | Concentration of glucose generated, Celluclast + Mutant [6] | Concentration of glucose generated, Culture solution + Mutant [7] | Concentration of glucose generated, Culture solution + Mutant [8] | further results |
| --- | --- | --- | --- | --- | --- | --- | --- | --- | --- | --- | --- | --- | --- | --- | --- | --- | --- | --- | --- | --- | --- |
| B1 | 100% | 100% | 60% | 55% | 40% | 100% | 55% | 50% | 50% | 11 g/L | 12 g/L | 11 g/L | 8 g/L | 9 g/L | 8 g/L |  |  |  |  |  |  |
| B2 | 100% | 100% | 100% | 100% | 95% | 100% | 100% | 100% | 95% |  |  |  |  |  |  | 15 g/L | 15 g/L | 15 g/L | 12 g/L | 12 g/L | Concentration of glucose generated, Culture solution + Mutant [9]: 12 g/L |
| B3 | 100% | 100% | 40% | 40% | 40% | 100% | 60% | 50% | 50% | 12 g/L | 11 g/L | 12 g/L | 9 g/L | 8 g/L | 10 g/L |  |  |  |  |  | Relative activity ([1]; Comparative Example 2, technique similar to Example 3, parent endoglucanase = 100%): 100% |
| B4 | 100% | 100% | 95% | 90% | 90% | 100% | 100% | 100% | 95% |  |  |  |  |  |  | 16 g/L | 15 g/L | 16 g/L | 13 g/L | 12 g/L | Concentration of glucose generated, Culture solution + Mutant [9]: 13 g/L |
